Test [1] concerns the target c-Jun (recombinant: overexpressed in 293T cells or in vitro translated). Put plainly: cell-based or functional assay.
In test [2] the target is c-Jun/c-Fos AP-1 complex. Put plainly: cell-based or functional assay.
Test [3] deals with T1, endogenous KRC of Jurkat T cells (human, UniProt Q5T1R4 1-2406, limits assumed).
T1 construct: Detected with anti-KRC rabbit antisera in anti-c-Jun immunoprecipitates
The test is described as follows: anti-c-Jun IP from PMA/ionomycin-stimulated Jurkat cells, blot with anti-KRC antisera. As to the method:
(§1) FIG. 21(A) 293T cells were transfected with c-Jun and myc-KRCtr. 48 hours later, lysates were immunoprecipitated with anti-Myc antibody. Immunoprecipitates were probed by western blotting with anti-c-Jun antibody. FIG. 21(B) (left panel) 293T cells were cotransfected with c-Jun and full length His-KRC. 48 hours later, lysates were immunoprecipitated with anti-His antibody (DE8 Omniprobe) and precipitates were probed by western blotting with anti-c-Jun antibody. (right panel) In vitro translated and S35-labelled c-Jun and His-KRCtr were mixed and immunoprecipitated with anti-His antibody. Recovered c-Jun protein was visualized by autoradiography. FIG. 21(C) Jurkat or EL4 T cells were stimulated with PMA plus ionomycin for 45 minutes. Lysates were immunoprecipitated with anti-c-Jun antibody, and immunoprecipitates were probed with specific anti-KRC rabbit antisera. FIG. 21(D) (upper panel) 293T cells were transfected with AP-1 Luciferase along with c-Jun, c-Fos, and KRC. 24 hours later, Luciferase activity was determined as above. […] 24 hours later, luciferase activity was determined as above. […]

Test [4] deals with endogenous KRC of EL4 T cells (UniProt A2A884 1-2348, limits assumed). Put plainly: anti-c-Jun IP from PMA/ionomycin-stimulated EL4 cells, blot with anti-KRC antisera. On the procedure: as §1
endogenous KRC of EL4 T cells, sequence (A2A884 whole entry): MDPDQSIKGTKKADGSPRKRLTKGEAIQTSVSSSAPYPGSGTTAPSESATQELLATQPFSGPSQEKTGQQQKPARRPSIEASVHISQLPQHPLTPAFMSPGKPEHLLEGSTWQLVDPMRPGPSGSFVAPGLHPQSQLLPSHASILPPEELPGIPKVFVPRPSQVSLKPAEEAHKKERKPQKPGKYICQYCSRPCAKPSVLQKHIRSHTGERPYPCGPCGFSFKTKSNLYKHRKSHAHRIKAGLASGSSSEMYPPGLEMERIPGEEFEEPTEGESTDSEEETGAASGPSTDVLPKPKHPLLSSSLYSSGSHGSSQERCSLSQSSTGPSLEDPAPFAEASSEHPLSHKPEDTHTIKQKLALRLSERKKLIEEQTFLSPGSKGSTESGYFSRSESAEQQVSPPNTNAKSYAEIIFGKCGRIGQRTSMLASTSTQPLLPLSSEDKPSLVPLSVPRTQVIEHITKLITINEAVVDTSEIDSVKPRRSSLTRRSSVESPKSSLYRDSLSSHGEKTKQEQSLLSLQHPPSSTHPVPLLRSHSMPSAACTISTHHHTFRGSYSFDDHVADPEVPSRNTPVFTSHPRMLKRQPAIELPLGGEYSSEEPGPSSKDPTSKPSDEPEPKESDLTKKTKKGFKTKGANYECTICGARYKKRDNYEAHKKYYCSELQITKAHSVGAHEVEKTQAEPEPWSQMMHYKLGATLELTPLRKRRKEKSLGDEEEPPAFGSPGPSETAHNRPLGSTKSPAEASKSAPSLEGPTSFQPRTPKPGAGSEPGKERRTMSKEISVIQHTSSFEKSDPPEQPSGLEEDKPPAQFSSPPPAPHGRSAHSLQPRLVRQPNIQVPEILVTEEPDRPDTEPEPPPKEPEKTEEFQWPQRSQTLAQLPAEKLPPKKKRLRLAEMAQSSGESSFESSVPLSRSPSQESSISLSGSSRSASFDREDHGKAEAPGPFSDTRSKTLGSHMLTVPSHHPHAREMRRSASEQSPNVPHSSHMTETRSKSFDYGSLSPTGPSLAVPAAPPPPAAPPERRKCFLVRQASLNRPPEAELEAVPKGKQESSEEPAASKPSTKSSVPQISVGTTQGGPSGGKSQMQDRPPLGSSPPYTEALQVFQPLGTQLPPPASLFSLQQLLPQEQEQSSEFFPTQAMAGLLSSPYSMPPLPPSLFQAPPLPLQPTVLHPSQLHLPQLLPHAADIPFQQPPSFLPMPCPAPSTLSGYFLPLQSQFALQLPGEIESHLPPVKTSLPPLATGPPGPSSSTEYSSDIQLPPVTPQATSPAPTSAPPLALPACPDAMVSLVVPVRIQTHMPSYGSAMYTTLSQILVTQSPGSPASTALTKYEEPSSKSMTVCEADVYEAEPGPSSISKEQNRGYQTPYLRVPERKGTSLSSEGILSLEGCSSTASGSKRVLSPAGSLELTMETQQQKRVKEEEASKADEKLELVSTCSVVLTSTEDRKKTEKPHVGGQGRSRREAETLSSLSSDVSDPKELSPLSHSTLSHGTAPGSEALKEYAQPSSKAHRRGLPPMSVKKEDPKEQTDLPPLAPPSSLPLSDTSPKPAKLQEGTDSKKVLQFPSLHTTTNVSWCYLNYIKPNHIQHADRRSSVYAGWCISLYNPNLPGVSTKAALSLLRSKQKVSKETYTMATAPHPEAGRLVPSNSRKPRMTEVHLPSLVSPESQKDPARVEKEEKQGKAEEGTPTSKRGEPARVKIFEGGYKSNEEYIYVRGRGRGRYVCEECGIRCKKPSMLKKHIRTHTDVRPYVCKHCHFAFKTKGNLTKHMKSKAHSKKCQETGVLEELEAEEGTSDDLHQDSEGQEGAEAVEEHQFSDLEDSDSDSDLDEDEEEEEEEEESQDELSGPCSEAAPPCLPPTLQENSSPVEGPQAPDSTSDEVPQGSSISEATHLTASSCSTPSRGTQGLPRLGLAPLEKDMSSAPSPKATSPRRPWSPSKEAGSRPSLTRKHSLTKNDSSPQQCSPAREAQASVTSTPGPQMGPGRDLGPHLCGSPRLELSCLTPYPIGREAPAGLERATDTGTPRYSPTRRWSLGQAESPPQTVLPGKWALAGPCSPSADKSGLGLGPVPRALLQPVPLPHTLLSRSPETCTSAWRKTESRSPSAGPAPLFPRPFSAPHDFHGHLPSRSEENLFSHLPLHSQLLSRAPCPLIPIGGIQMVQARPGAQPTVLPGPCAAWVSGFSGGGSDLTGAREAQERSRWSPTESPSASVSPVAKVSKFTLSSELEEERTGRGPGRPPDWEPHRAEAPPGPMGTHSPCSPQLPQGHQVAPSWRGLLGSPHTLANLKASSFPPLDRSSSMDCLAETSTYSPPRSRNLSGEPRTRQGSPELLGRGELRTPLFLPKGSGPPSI

T1 sequence (Q5T1R4 whole entry): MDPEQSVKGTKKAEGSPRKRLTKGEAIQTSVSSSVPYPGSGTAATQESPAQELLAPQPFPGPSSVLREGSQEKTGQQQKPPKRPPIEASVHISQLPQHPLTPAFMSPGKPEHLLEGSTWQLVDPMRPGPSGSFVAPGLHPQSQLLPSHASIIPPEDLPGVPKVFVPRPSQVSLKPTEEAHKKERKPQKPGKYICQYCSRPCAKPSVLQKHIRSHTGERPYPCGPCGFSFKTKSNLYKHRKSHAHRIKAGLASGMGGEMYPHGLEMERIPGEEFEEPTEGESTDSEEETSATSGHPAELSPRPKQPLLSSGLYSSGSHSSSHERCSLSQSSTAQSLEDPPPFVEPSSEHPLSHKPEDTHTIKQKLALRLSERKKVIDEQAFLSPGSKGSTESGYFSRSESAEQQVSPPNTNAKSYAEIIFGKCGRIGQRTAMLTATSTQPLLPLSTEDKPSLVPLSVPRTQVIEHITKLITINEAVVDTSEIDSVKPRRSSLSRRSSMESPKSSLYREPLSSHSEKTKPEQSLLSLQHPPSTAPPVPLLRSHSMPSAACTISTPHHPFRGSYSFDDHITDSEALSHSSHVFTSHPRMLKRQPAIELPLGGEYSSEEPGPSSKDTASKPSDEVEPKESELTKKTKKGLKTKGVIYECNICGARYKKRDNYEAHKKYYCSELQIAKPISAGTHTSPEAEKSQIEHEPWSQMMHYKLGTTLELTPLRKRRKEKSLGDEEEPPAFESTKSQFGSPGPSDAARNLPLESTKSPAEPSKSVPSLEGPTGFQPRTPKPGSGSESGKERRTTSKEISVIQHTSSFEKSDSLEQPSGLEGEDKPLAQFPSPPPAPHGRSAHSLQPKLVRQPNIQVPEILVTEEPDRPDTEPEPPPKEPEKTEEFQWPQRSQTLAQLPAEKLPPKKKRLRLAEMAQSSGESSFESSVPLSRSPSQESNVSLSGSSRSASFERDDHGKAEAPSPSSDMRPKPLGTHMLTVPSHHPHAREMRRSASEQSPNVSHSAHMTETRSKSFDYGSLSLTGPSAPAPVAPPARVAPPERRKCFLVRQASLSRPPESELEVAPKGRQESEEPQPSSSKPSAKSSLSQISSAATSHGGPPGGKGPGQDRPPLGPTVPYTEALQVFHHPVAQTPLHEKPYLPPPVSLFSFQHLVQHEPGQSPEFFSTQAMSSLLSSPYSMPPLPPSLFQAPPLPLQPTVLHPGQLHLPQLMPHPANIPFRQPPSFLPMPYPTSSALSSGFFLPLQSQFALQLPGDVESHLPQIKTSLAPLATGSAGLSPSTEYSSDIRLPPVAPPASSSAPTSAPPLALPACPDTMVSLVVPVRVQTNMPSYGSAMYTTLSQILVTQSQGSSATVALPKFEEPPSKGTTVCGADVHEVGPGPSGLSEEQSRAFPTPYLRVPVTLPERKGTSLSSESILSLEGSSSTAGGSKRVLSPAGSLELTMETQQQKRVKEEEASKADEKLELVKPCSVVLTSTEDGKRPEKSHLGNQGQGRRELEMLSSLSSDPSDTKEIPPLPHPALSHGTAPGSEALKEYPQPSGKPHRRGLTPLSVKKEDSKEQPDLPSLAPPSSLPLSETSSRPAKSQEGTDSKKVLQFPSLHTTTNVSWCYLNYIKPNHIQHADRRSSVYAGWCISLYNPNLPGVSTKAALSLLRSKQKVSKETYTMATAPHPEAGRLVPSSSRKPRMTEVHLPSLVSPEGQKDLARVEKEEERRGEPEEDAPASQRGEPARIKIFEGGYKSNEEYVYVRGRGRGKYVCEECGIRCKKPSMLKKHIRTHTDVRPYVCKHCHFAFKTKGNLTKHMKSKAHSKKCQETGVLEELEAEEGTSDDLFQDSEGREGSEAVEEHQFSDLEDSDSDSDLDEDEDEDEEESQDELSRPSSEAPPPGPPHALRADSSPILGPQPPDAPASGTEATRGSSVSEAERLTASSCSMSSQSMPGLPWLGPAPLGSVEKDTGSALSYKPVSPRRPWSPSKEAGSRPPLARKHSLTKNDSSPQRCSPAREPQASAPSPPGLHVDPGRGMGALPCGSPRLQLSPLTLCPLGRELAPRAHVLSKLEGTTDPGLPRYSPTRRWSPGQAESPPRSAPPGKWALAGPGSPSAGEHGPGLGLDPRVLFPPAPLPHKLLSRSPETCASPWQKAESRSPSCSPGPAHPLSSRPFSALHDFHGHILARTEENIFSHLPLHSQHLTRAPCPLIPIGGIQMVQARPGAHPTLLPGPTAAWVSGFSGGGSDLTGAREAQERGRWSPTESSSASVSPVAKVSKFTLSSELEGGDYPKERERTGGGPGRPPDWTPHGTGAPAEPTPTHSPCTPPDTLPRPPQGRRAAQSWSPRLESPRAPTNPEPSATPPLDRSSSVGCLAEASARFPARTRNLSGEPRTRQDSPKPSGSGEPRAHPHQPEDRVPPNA

With “KRC (full-length, overexpressed; tag or construct not further specified), Q5T1R4 1-2406”, the AP-1 luciferase reporter activity in 293T cells overexpressing c-Jun in test [1] was 5 fold. Further, in test [2], the AP-1 luciferase reporter activity in 293T cells overexpressing c-Jun plus c-Fos was determined as 5 fold.

B1: endogenous c-Jun of Jurkat T cells (other, human, UniProt P05412 1-331, looked up)
chain: MTAKMETTFYDDALNASFLPSESGPYGYSNPKILKQSMTLNLADPVGSLKPHLRAKNSDLLTSPDVGLLKLASPELERLIIQSSNGHITTTPTPTQFLCPKNVTDEQEGFAEGFVRALAELHSQNTLPSVTSAAQPVNGAGMVAPAVASVAGGSGSGGFSASLHSEPPVYANLSNFNPGALSSGGGAPSYGAAGLAFPAQPQQQQQPPHHLPQQMPVQHPRLQALKEEPQTVPEMPGETPPLSPIDMESQERIKAERKRMRNRIAASKCRKRKLERIARLEEKVKTLKAQNSELASTANMLREQVAQLKQKVMNHVNSGCQLMLTQQLQTF
notes: also called AP-1 complexes
Regarding B1, the binding result in test [3] is given as “binds”.

B2: endogenous c-Jun of EL4 T cells (other, UniProt P05627 1-334, looked up)
chain: MTAKMETTFYDDALNASFLQSESGAYGYSNPKILKQSMTLNLADPVGSLKPHLRAKNSDLLTSPDVGLLKLASPELERLIIQSSNGHITTTPTPTQFLCPKNVTDEQEGFAEGFVRALAELHSQNTLPSVTSAAQPVSGAGMVAPAVASVAGAGGGGGYSASLHSEPPVYANLSNFNPGALSSGGGAPSYGAAGLAFPSQPQQQQQPPQPPHHLPQQIPVQHPRLQALKEEPQTVPEMPGETPPLSPIDMESQERIKAERKRMRNRIAASKCRKRKLERIARLEEKVKTLKAQNSELASTANMLREQVAQLKQKVMNHVNSGCQLMLTQQLQTF
notes: also called AP-1 complexes
Regarding B2, in test [4], the binding result is “binds”.

Values taken from patent publication US20050026285A1 (Harvard, published 2005).
